Measurements from the RNAGym collection of RNA variant scans (doi:10.1073/pnas.2313332121).
Variants at the floor of the assay were thinned out.

B1: TPR 5TU (parent)
chain: GGAUCUUCUCGAUCUAACAAAAAAGACAAAUCUGCCACAAAGCUUGAGAGCAUCUUCGGAUGCAGAGGCGGCAGCCUUCGGUGGCGCGAUAGCGCCAACGUUCUCAACUAUGACACGCAAAACGCGUGCUCCGUUGAAUGGAGUUUAUCAUG

Variants of: B1
Assay: polymerase ribozyme fitness, log enrichment relative to wild type (log ratio); higher = more active; in vitro selection for triplet polymerase activity
Outline: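 To select mutant libraries of each subunit of a heterodimeric triplet polymerase ribozyme, built by PCR and transcribed, each was annealed with a biotinylated primer, partner subunit and triplets, then incubated frozen at −7 °C. Extended constructs were gel-excised, captured on streptavidin beads and amplified by RT-PCR, in one round carried out in triplicate. Illumina sequencing of input and output libraries kept genotypes with ≥10 input reads and ≥1 read per output. Fitness is the base-2 logarithm of genotype enrichment relative to wild-type enrichment, from inverse-variance-weighted replicate averages.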

Going from GGAUCUUCUCGAUCUAACAAAAAAGACAAAUCUGCCACAACGCUUGAGAGCACCUUCGGAUGCAGAGGCGGCAGCCUUCGGUGGCGCGAUAGCGCCAACGUUCUCAACUAUGACACGCAAACAGCGUGCUCCGUUGAAUGUAGGUUAUCAUG to GGAUCUUCUCGAUCUAACAAAAAAGACAAAUCUGCCACAAGGCUUGAGAGCAUCUUAGGAUGCAGAGGCGGCAGCCUUCGGUGGCGCGAUAGCGCCAACGUUCUCAACUAUGACACGCAAAACGCGUGCUCCGUUGAAUGGAGUUUAUCAUG, the “polymerase ribozyme fitness (log ratio)” value rises from -3.18 to 0.0695.

Compared with GGAUCUUCUCGAUCUAACAAAAAAGACAAAUCUGCCACAAGGCUUGAGAGCAUCUUCUCAUGCAGAGGCGGCAGCCUUCGGUGGCGCGAUAGCGCCAACGUUCUCAACUAUGACACGCAAAACGCGUGCUCCGUUGAAUGGAGUUUAUCAUG, GGAUCUUCUCGAUCUAACAAAAAAGACAAAUCUGCCACAACGCUUGAGAGCAUCUUCGGAGGCAGAGGCGGCAGCCUUUGGUGCCGCGAUAGCGCCAACGUUCUCAACUAUGACACGCAAAACGCGUGCUCCGUUGAAUGGAGUUUAUCAUG is lower in “polymerase ribozyme fitness (log ratio)” value: -0.488 for the first, no more than -4.2 for the second.

First: GGAUCUUCUCGAUCUAACAAAAAAGACAAAUCUGCCACAACGCUUGAGAGCAUCUUCGGAUGCAGAGGCGGCAGCCUUCGGUGACGCGAUAGCGCCAACGUUCUCAACGAUGACACGCAAAACGCGUGCUCCGUUGAAUGGAGUUUAUCAUG
Second: GGAUCUUCUCGAUCUAACAAAAAAGACAAAUCUGCCACAAGGCUUGAGAGCAUCUUCGGAUGCAGAGGCGGCAGCCUUCGGUGGCGCGAUAGAGCCAACGUUCUCAACUAUGACACGCAAAACGCGUGCUCCGUUGAAUGGAGUUUCUCAUG
The “polymerase ribozyme fitness (log ratio)” value of the first is lower: -3.33 for the first, -1.52 for the second.

First: GGAUCUUCUCGAUCUAACAAAAAAGACAAAUCUGCCACAACGCUUGAGAGCAUCUUCGGAUGCAGAGGCGGCAGCCUUCGCCGGCGCGAUAGCGCCCACGUUCUCAACUAUGACACGCAAAACGCGUGCUCCGUUGAAUGGAGUUUAUCAUG
Second: GGAUCUUCUCGAUCUAACAAAAAAGACAAAUCUGCCACAACGCUUGAGAGCAACUUCAGAUGUAGAGGCGGCAGCCUUCGGUGGCGCGAUAGCACCAACGUUCUCAGCUAUGACACGCAAAACGCGUGCUCCGUUGAAUGGAGUUUAUCAUG
The “polymerase ribozyme fitness (log ratio)” value of the first is higher: -0.593 for the first, no more than -4.2 for the second.

Compared with GGAUCUUCUCGAUCUAACAAAAAAGACAAAUCUGCCACAAGGCUUGAGAGCAUCUUCGGUUGCAGAGGCGGCAGCCUUCGGUGGCGCGAUAGCGCCAACGUUCUCAACUAUGACACGCAACACGCGUGCUCCGUUGAAUGGAGAUUAUCAUG, GGAUCUUCUCGAUCUAACAAAAAAGACAAAUCUGCCACAACGCGUCAGAGCAUCUUCGGAUGCAGAGGCGGCAGCCUUCGGUGCCGCGAUAGCGCCAACGUUCUCAACUAUGACACGCAAAAGGCGUACUCCGUUGAAUGGAGUAUAUCAUG is lower in “polymerase ribozyme fitness (log ratio)” value: -1.13 for the first, no more than -4.2 for the second.

Compared with GGAUCUUCUCGAUCUAACAAAAAAGACAAAUCUGCCACAAGGCUUGAGAGCAUUUUCGGAUGCAGAGGCGGCAGCCUUCGGUGGCGCGAUAGCGCCAACGUUCUCAACUAUGACACGCAAAACGCGUGCUCCGUUGAAUGGAGUUUAUCAUG, GGAUCUUCUCGAUCUAACAAAAAAGACAAAUCUGCCACAACGCUUGAGAGCAACUUCGGAUGUAGAGGCGGCAGCAUUCGGUGGCGCGAUAGCGCCAACGUUCUCAACUAUGACACGCAAAACGCGUGCUCCGUUGAAUGGAGUUUAUCAUG is lower in “polymerase ribozyme fitness (log ratio)” value: 0.979 for the first, no more than -4.2 for the second.

Compared with GGAUCUUCUCGAUCUAACAAAAAAGACAAAUCUGCCACAACGCUUGAGAGCAUCUUCGGAUGCAGAGGCGGCAGCCUUCGGUGGCGCGAUAUCGCCAACGUUCUCAACUAUGACACGCAAAACGCGUGCUCCGUUGAAUGGAGUAUAUCCUG, GGAUCUUCUCGAUCUAACAAAAAAGACAAAUCUGCCACAAGGCUUGAGAGCGUCUUCGGAUGCAGAGGCGGCAGCCGUCGGUGGCGUGAUAGCGCCAACCUUGUCAACUAUGACACGCAAAACGCGUGCUCCGUUGAGUGGAGUUUAUCAUG is lower in “polymerase ribozyme fitness (log ratio)” value: -2.83 for the first, no more than -4.2 for the second.

First: GGAUCUUCUCGAUCUAACAAAAAAGACAAAUCUGCCACAACGCUUGAGAGCAUCUACGGAUGCAGAGGCUGCAGGCUUCGGUGGCGCGAUAGUGCCAACGUUCUCAACUAUGACACGCAAAACGCGUGCUCUGUUCAAUGGAGUUUAUCAUG
Second: GGAUCUUCUCGAUCUAACAAAAAAGACAAAUCUGCCACAAGGCUUGAGAGCAUCUUUGGAUGCAGAGGCGGCAGCCUUCGGUGGCGCGUUAGCGCCAACGUUCUCAACUAUGACACGCAAAACGCGUGCUCCGUUGAAUGGAGUUUAUCAUG
The “polymerase ribozyme fitness (log ratio)” value of the first is lower: no more than -4.2 for the first, 0.785 for the second.

Going from GGAUCUUCUCGAUCUAACAAAAAAGACAAAUCUGCCACAACGCUUGAGAGCAACUUCGGAUGCAGAGGCGGCAGCCUUCGGUGGCGCGAUAGCGCCAACGUUCUCAACUAUGACACGCAAAACGCGUGCUCCGUUGAAUGGAGUUUAUCAUG to GGAUCUUCUCGAUCUAACAAAAAAGACAAAUCUGCCACAAGGCUUGAGAGCAUAUGUGGAUGCAGAGGCGGCAGCCUUCGGUGUCGCGAUAGCGCCAAGGUUCUCAACCAUGACACGCAAAACGCGUGCUCCGUUGAAUGGAGUUCAUCAUG, the “polymerase ribozyme fitness (log ratio)” value falls from -1.22 to no more than -4.2.

Going from GGAUCUUCUCGAUCUAACAAAAAAGACAAAUCUGCCACAAGGCUUGAGAGCAUCUUCGGAUGGAGAGGCGGCAAUCUUCGGUGGCGCGAUAUCGCCAACGUUCUCAACUAUGACACGCAAAACGCGUGCUCCGUUGAAUGGAGCUUAUCAUG to GGAUCUUCUCGAUCUAACAAAAAAGACAAAUCUGCCACAACGCUUGAGAGCAUCUUCGGAUGCAGAGGCGGCAGCCUUCGGUGGCGCGAUAUCGCCAACGUUUUCAACUAUGACACGCAAAAGGCGUGCUCCGUUGAAUGGAGUUUAUCAUG, the “polymerase ribozyme fitness (log ratio)” value rises from -3.87 to -1.2.

Compared with GGAUCUUCUCGAUCUAACAAAAAAGACAAAUCUGCCACAACGCUUGAGAGCAUCUUCGGAUGCAGAGGCGGCAGCCUUCGGUGGCGCGAUAACGCCAACGUUCUCAACUAUGACACGCAAAACGCGUGCUCCGUUGAAUGGAGUUUAUCAUG, GGAUCUUCUCGAUCUAACAAAAAAGACAAAUCUGCCACAAGGCUUGAGAGCAUCUUCAGAUGCAGAGGCGGCAGCCUUCGGGGGCGCGAUAGCGCCAACGUUCUCAACUAUGACACGCAAAACGCGUGCUCCGUUGAAUGGAGACUAUCAUG is higher in “polymerase ribozyme fitness (log ratio)” value: -3.32 for the first, 0.156 for the second.

First: GGAUCUUCUCGAUCUAACAAAAAAGACAAAUCUGCCACAACGCUUGAGAGCAUCUACGGAUGCAGAGGCGGCAGCCUUCGGUUGCGCGAUAGCGCCAACGUUCUCAACUAUGACACGCAAAACGCGCGCUCCGUUGAAUGGAGUUUAUCAUA
Second: GGAUCUUCUCGAUCUAACAAAAAAGACAAAUCUGCCACAAGGCUUGAGAGCAUCUUCGGAUGCAGAGGCGGCAGCCUUCGGUGGCGCGAUAGCGCCAACGUUGUCAACUAUGACACGCAAAACGCGUGCUCCGUUGAAUGGAGUUUAUCAUG
The “polymerase ribozyme fitness (log ratio)” value of the first is lower: -4.07 for the first, -1.94 for the second.

Compared with GGAUCUUCUCGAUCUAACAAAAAAGACAAAUCUGCCACAAGGCUUGAGAGCAUCUUUGGAUGCAGAGGCGGCAGCCUUCGGUGGCGCGAUAGCGCCAACGUUCUCAACGAUGACACGCAAAUCGCGUGCUCCGUUGAAUGGAGUUUAUCAUG, GGAUCUUCUCGAUCUAACAAAAAAGACAAAUCUGCCACAACGCUUGAGAGCAUCUUCGGAUGCAGAGGCGGCAGCCUUCGGAGGCGCGAUAGCGCCAACGUUCUCAACUAUGACACGCAAAACGAGUGCUCCGUUGAAUGGAGUUUAUCAUG is higher in “polymerase ribozyme fitness (log ratio)” value: -2.07 for the first, -0.821 for the second.

First: GGAUCUUCUCGAUCUAACAAAAAAGACAAAUCUGCCACAACGCUUGAGAGCAUCGUCGGAUGCAGAGGCGGCAGCCUUCGAUGGUGCGAUAGCGCCAACGUUCUCAACUAUGACACGCAAAACGCGUGCUCCGUUGAAUGGAGUUUAUCAUG
Second: GGAUCUUCUCGAUCUAACAAAAAAGACAAAUCUGCCACAACGCUUGAGAGCAUCCACGGAUGCAGAGGCGGCAGACUUCGGUCGCGCGAUAGCGCCAACGUUCUCAACUAUGACACGCAAAACGCGUGCUACGUCGAAUGGAGUUUAUCAUG
The “polymerase ribozyme fitness (log ratio)” value of the first is higher: -0.432 for the first, no more than -4.2 for the second.

Going from GGAUCUUCUCGAUCUAACAAAAAAGACAAAUCUGCCACAACGCUUGAGAGCAUCUUCGGAUGCAGAGGCGGCAGCCUUCGGUGGCUCGAAAGCGCCAACGUUCUCAACUAUGACACGCAAAACGCGUGACCCGUUGAAUUGAGUUUAUCAUG to GGAUCUUCUCGAUCUAACAAAAAAGACAAAUCUGCCACAAGGCUUGAGAGCAUCUUCGGAUGCAAAGGCGGCAGCCUUCGGUGGCGCGAUAGCGCCAACGUUCUCAACUAUGACACGCAAAACGCGUGCUCCGUUGAAUGGAGUUUAUCAUG, the “polymerase ribozyme fitness (log ratio)” value rises from no more than -4.2 to -0.45.

GGAUCUUCUCGAUCUAACAAAAAAGACAAAUCUGCCACAACGCUUGAGAGCAACUUCGGAUGCAGAGGCGGCAGCCUUAGGUGGCGCGAUAGCGCCAACGUUCUCAAUUAUGACACGCAAAACGCGUGCUCCGUUGAAUGGAGUUUCUCAUG and GGAUCUUCUCGAUCUAACAAAAAAGACAAAUCUGCCACAAGGAUUGAGAGCAUCUUCGCAUGCAGAGGCGGCAGCCUUCGGUGGCGCGAUAGCGCCAACGUUCUCAACUAUGACACGCAAAACGCGUGCUCCGUUGAAUGGAGUUUAUCAUG cannot be ordered by “polymerase ribozyme fitness (log ratio)” value: no more than -4.2 for the first, no more than -4.2 for the second.

Compared with GGAUCUUCUCGAUCUAACAAAAAAGACAAAUCUGCCACAAGGCUUGAGAGCGUCUUCGGAUGCAGAGGUGGCAGCCUUCGGUGGCGCGAUAGUCCCAACGUUCUCAACUAUGACACGCAAAACGCGUGCUCCGUUGAAUGGAGUUCAUCAUG, GGAUCUUCUCGAUCUAACAAAAAAGACAAAUCUGCCACAAGGCUUGAGAGCAUCUUCGGAUGCAGAGGCGGCAGCCUUCGGUGGCGCGAUAGCGCCAACGUUCUCAACUAUGACACGCAAAACGCGUGCUCCGUUGAAUGGAGUUUAUCAUG is higher in “polymerase ribozyme fitness (log ratio)” value: -2.71 for the first, 0.583 for the second.

First: GGAUCUUCUCGAUCUAACAAAAAAGACAAAUCUGCCACAAGGCUUGAGACCAUCUUCGGAUGCAGAGGCGGCAGCCUUCGGUGGCGCGAUAGCGCCAACGUUCUCAACUAUGACACGCAAAACGCGUGCUCCGUUGAAUGGAGUUUAUCAUG
Second: GGAUCUUCUCGAUCUAACAAAAAAGACAAAUCUGCCACAACGCUUGAGAGCAUCUUCGGAUGCAGAGGCGGCAGCCUUCGGUGGCGCGAUAGCGCCAACGUUCUCAACUAUGACACGCAAAACGCGUGCUCCGUUGAAUGGAGUUUAUCAGG
The “polymerase ribozyme fitness (log ratio)” value of the first is higher: -1.47 for the first, -3.63 for the second.

GGAUCUUCUCGAUCUAACAAAAAAGACAAAUCUGCCACAAGGCUUGAGCGCAUCCUCGGAUGCAGAGGAGGCAGCCUUCGGUGGUGCGAUAGCGCCAACGUUCUCAAUUAUGACACGCAAAACGCGUGCUCCGUUGAAUGGAGUUUAUCAUG and GGAUCUUCUCGAUCUAACAAAAAAGACAAAUCUGCCACAAGGCUUGAGAGCAUCUUCGGAUGCAGCGGCGGCAGCCUUCGGUGGCGCGCUAUCGCCUACGUUCUCAACUAUGACACGCAAAACUCGUGCUCCGUUGAAUGGAGUUUAUCAUG cannot be ordered by “polymerase ribozyme fitness (log ratio)” value: no more than -4.2 for the first, no more than -4.2 for the second.
